Molecular target: His-E-cadherin fusion protein (UniProt P12830)
Experiment: MST; RED-NHS-labelled His-E-cadherin at constant concentration (1 µM) with 2-fold serial dilutions of GST-KRT18 in MST-optimized buffer; 15 min at room temperature; Monolith NT.115; 20 and 40% MST power

UniProt P12830, sequence (P12830 155-882): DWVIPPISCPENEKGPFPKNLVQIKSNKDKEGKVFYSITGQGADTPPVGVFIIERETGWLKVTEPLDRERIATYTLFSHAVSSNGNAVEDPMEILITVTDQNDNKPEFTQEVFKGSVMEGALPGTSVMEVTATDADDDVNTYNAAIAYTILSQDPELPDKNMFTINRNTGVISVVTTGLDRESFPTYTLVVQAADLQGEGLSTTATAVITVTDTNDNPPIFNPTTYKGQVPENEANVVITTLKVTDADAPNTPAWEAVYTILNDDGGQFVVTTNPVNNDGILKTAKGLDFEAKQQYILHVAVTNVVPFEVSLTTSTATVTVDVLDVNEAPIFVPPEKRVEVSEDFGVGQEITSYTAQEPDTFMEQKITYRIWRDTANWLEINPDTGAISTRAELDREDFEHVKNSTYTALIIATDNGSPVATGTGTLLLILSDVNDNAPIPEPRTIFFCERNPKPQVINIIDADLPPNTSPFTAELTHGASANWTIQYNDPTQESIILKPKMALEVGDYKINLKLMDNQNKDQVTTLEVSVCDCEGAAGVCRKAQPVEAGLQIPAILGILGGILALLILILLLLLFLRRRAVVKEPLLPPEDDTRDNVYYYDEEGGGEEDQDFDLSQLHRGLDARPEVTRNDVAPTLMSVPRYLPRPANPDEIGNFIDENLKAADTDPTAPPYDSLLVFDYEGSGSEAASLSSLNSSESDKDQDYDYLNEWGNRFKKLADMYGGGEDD

B1: GST-KRT18 fusion protein (natural protein)
chain: MSFTTRSTFSTNYRSLGSVQAPSYGARPVSSAASVYAGAGGSGSRISVSRSTSFRGGMGSGGLATGIAGGLAGMGGIQNEKETMQSLNDRLASYLDRVRSLETENRRLESKIREHLEKKGPQVRDWSHYFKIIEDLRAQIFANTVDNARIVLQIDNARLAADDFRVKYETELAMRQSVENDIHGLRKVIDDTNITRLQLETEIEALKEELLFMKKNHEEEVKGLQAQIASSGLTVEVDAPKSQDLAKIMADIRAQYDELARKNREELDKYWSQQIEESTTVVTTQSAEVGAAETTLTELRRTVQSLEIDLDSMRNLKASLENSLREVEARYALQMEQLNGILLHLESELAQTRAEGQRQAQEYEALLNIKVKLEAEIATYRRLLEDGEDFNLGDALDSSNSMQTIQKTTTRRIVDGKVVSETNDTKVLRH
Kd: 5.6 µM

Reference: PMC10464462
